US20250257130A1 (NONA BIOSCIENCES SUZHOU, published 2025)

B1: PR000374 (antibody, human IgG1, kappa, V domains shown)
VH: EVQLVESGGGLVQPGRSLRLSCTASGSDINDYPITWVRQAPGQGLEWIGFINSGGSTWYASWVKGRFTISRDDSKSIAYLQMNSLKTEDTAVYYCARGYSTYYRDFNIWGQGTLVTVSS
VL: DIQMTQSPSSLSASVGDRVTINCQASQSIDSNLAWFQQKPGQPPKLLIYRASNLASGVPDRFSGSGSGTDFTLTISSLEAEDVATYYCLGGVGAVSYRTSFGGGTKVEIKR
notes: positive control; also called Bench marker 1
B2: PR303125 (antibody, human IgG1, V domains shown)
VH: EVQLLESGGGLVQPGGSLRLSCAASGFTFSSHAMSWVRQAPGKGLEWVSAISGSGDSTHYAASVKGRFTISRDNSKNTLYLQMNSLRAEDTAVYYCETLLRFLESLGNDGFKIWGQGTMVTVSS
notes: HCAb (heavy chain-only, human IgG1 Fc), no light chain
B3: PR303191 (antibody, human IgG1, V domains shown)
VH: EVQLLESGGGLVQPGGSLRLSCAASGFIFGSYAMSWVRQAPGKGLEWVSGISGTGGNTYYADSVKGRFTISRDNSKNTLYLQMNSLRAEDTAVYFCERGITIHGVVIIPPDYRGQGTLVTVSS
notes: as for B2

What was measured:
[1] = target: T1, human ROR1 on cells (HEK293T-hROR1, PANC-1, A549) (human, UniProt Q01973 30-937); assay: flow cytometry, HEK293T-hROR1 cells
T1 construct: whole, on cells; one molecule for the three cell lines; also called huROR1; cell surface ROR1
Procedure: (§1) In brief, anti-ROR1 antibodies were serially diluted in staining buffer (PBS containing 2% FBS). Antibody solution was incubated with 1×10⁵ cells at 4° C. for 1 hour. […] After 1-hour incubation at 4° C., cells were washed twice with staining buffer and subjected to flow cytometry. PR000374 (Bench marker 1) and non-relevant IgG isotype control (Crownbio) were used as positive and negative controls, respectively.

[2] = target: T2, cynomolgus ROR1 on CHO-K1-cynoROR1 cells (cynomolgus monkey, UniProt A0A2K5WTX7 30-937); assay: flow cytometry, CHO-K1-cynoROR1 cells
T2 construct: whole, on cells
Procedure: as §1

[3] = target: T2, cynomolgus ROR1 on CHO-K1-cynoROR1 cells; assay: flow cytometry on CHOK1-cynoROR1 cells, MFI (Mean) [bottom panel, letter not given]
Procedure: (§2) Binding of recombinant anti-ROR1 antibodies to human or cynomolgus ROR1-overexpressing cells was tested by flow cytometry. In this example, ROR1-expressing cell lines are HEK293T cell lines that had been transfected to express human ROR1 on the surface (HEK293T-hu ROR1, KYINNO BIOTECHNOLOGY CO., LTD, Catalog #KC-1018), CHO-K1 cell lines that had been transfected to express cynomolgus ROR1 (CHOK1-cyno ROR1), PANC-1 (ATCC, catalog: CRL-1469) or A549 cell lines (Shanghai Institute of Biochemistry and Cell Biology, Chinese Academy of Sciences).
as §1

[4] = target: T1, human ROR1 on cells (HEK293T-hROR1, …); assay: flow cytometry on HEK293T-hROR1 cells, MFI (Mean)
Procedure: as §2, §1

[5] = target: T3, Human ROR1-ECD-his (Acro Biosystems RO1-H522y) (human, UniProt Q01973 30-406); assay: ELISA, plate coated with hu-ROR1-his at 1 µg/mL
T3 construct: extracellular domain; bought protein; also called hROR1-ECD-his; hu-ROR1-ECD-his
Procedure: Binding of recombinant anti-ROR1 antibodies to hu-ROR1-ECD-his was tested by ELISA. In brief, 1 μg/mL hu-ROR1-ECD-his was added to the 96-well plate, 100 μL each well, incubated at 4° C. overnight, washing the plates with 1×PBST 3 times, 300 ul/well, blocking the plates with 2% BSA in 1×PBST, 200 ul/well at 37° C. for 1 hour, anti-ROR1 antibodies were serially diluted in staining buffer (PBS containing 2% BSA). Antibody solution was added to the plate and incubates at 37° C. for 1 hour, washing the plates with 1×PBST 3 times, 300 ul/well, adding secondary antibody 100 ul/well and incubate at 37° C. for 1 hour, washing the plates with 1×PBST 3 times, 300 ul/well and then add 100 ul/well TMB for about 5 min, stop the reaction by adding 100 ul/well 2M H₂SO₄, read the plates with Molecular device spectra max plus384 at 450 nm and 570 nm.

[6] = target: T4, hu-ROR2-ECD-his (Acrobiosystems RO2-H52E5) (human, UniProt Q01974 34-403); assay: ELISA, plate coated with hu-ROR2-his at 1 µg/mL
T4 construct: extracellular domain; bought protein; also called Human ROR2 his-tagged protein; Human ROR2, His Tag
How it was run: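 Plates were coated overnight at 4 °C with 1 μg/mL human ROR2-ECD-his and blocked with 2% BSA. Serially diluted anti-ROR1 antibodies were bound for 1 h at 37 °C, then secondary antibody for 1 h at 37 °C. Detection was by TMB (~5 min), stopped with H2SO4, and read at 450/570 nm.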

[7] = target: T3, Human ROR1-ECD-his (Acro Biosystems …); assay: BLI in-tandem competition; competitor: PR303191
Description: (§3) To determine if anti-ROR1 antibodies bind to human ROR1 on different or approximate binding epitopes, the ForteBio Octet® RED96e platform was used to perform epitope competition experiments on the anti-ROR1 antibodies. Human ROR1 protein (Acrobiosystems, #RO1-H522y) was biotinylated and then captured onto SA biosensors (ForteBio, #18-5020) to reach loading level of 0.3-0.4 nm. The in-tandem competition assay format was applied and it contains two association steps. Firstly, the antigen-loaded biosensors bind to each antibody (a.k.a, First antibody, 1st Ab) with a saturating concentration of 200 nM for 180 seconds to reach equilibrium and then secondly bind to the competing antibodies (a.k.a, Second antibody, 2nd Ab) of 200 nM for 180 seconds. The second binding signals were recorded as the 100% signal of each antibody when the first antibodies were replaced by kinetics buffer. All the binding data were analyzed using ForteBio Data Analysis 11.0 software. The inhibition rate is calculated by the following formula: […]

[8] = target: T3, Human ROR1-ECD-his (Acro Biosystems …); assay: BLI in-tandem competition; competitor: PR303201
Description: as §3

[9] = target: T3, Human ROR1-ECD-his (Acro Biosystems …); assay: BLI in-tandem competition; competitor: PR303147
Description: as §3

[10] = target: T3, Human ROR1-ECD-his (Acro Biosystems …); assay: BLI in-tandem competition; competitor: PR303155
Description: as §3

[11] = target: T3, Human ROR1-ECD-his (Acro Biosystems …); assay: ELISA, coated hu-ROR1-ECD-his

T1 sequence (Q01973 30-937): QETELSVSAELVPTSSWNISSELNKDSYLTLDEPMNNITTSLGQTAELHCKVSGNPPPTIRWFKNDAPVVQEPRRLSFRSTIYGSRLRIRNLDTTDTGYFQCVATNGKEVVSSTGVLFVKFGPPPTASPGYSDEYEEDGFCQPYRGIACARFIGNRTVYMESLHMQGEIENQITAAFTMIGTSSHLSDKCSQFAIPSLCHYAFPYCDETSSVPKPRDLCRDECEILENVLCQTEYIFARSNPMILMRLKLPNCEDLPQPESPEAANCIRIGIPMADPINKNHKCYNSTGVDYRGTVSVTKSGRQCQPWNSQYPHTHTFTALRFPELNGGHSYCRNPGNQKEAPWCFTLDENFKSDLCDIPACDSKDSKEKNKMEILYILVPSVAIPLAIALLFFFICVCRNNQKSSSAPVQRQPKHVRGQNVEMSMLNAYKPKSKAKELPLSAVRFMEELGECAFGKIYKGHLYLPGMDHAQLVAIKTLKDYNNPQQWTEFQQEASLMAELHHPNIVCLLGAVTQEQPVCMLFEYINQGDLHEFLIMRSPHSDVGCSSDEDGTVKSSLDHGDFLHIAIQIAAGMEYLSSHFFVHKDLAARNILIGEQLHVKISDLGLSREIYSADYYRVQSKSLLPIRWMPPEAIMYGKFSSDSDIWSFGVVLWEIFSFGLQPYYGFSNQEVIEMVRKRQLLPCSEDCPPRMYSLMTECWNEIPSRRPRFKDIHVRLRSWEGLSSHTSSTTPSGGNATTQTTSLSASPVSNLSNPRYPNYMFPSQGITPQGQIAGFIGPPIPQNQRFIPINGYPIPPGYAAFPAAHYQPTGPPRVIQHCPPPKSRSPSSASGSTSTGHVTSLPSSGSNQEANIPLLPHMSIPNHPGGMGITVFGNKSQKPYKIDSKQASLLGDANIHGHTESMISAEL
T4 sequence (Q01974 34-403): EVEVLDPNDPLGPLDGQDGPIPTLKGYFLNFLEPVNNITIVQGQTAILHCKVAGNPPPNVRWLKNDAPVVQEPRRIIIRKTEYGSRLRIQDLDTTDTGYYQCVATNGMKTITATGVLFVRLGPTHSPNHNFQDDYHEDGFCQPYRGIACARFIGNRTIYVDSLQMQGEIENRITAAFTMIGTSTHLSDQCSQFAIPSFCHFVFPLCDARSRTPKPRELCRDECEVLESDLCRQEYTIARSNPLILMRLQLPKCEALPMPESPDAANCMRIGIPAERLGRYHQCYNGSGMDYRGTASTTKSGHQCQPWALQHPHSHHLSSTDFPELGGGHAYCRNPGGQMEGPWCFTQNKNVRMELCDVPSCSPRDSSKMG
T3 sequence (Q01973 30-406): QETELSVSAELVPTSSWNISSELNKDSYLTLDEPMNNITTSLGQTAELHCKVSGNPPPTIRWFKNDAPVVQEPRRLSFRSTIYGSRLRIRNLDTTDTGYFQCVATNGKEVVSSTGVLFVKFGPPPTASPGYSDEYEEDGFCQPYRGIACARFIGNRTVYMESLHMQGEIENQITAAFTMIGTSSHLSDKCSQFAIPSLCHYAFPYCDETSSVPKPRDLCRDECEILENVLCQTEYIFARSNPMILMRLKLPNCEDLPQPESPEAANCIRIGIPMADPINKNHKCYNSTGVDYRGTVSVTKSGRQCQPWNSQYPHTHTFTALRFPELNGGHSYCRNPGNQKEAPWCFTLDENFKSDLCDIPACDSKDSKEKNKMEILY

Binder	EC50 [1] [µg/mL]	MAX(MFI) [1] [MFI]	EC50 [2] [µg/mL]	MAX(MFI) [2] [MFI]	EC50 (read off the curve) [3] [µg/mL]	EC50 (read off the curve) [4] [µg/mL]	EC50 (read off the curve) [5] [µg/mL]	binding result [6]	Inhibition (%) [7] [%]	Inhibition (%) [8] [%]	Inhibition (%) [9] [%]	Inhibition (%) [10] [%]	EC50 [11] [µg/mL]
B1	0.506	1.49e+07	0.314	1.05e+07	~0.3	~0.5	~0.0008	no binding (tested: about 15 µg/ml)	-34	-63	-72	-67	0.001
B2	0.273	1.5e+07	0.222	8.27e+06	~0.2	~0.3	~0.002	no binding (tested: about 15 µg/ml)	109	86	-88	-62	0.002
B3	0.044	1.4e+07	0.03	9.24e+06	~0.03	~0.04	~0.0007	no binding (tested: about 15 µg/ml)	80	57	-60	-62	0.001
